{
  "source": "paper PMC8489946",
  "about": "(RNA Biology, 2021)",
  "binders": {"B1": {"name": "Gbp2 (natural protein, UniProt P25555 1-427, looked up)", "chain": "MERELGMYGNDRSRSRSPVRRRLSDDRDRYDDYNDSSSNNGNGSRRQRRDRGSRFNDRYDQSYGGSRYHDDRNWPPRRGGRGRGGSRSFRGGRGGGRGRTLGPIVERDLERQFDATKRNFENSIFVRNLTFDCTPEDLKELFGTVGEVVEADIITSKGHHRGMGTVEFTKNESVQDAISKFDGALFMDRKLMVRQDNPPPEAAKEFSKKATREEIDNGFEVFIINLPYSMNWQSLKDMFKECGHVLRADVELDFNGFSRGFGSVIYPTEDEMIRAIDTFNGMEVEGRVLEVREGRFNKRKNNDRYNQRREDLEDTRGTEPGLAQDAAVHIDETAAKFTEGVNPGGDRNCFIYCSNLPFSTARSDLFDLFGPIGKINNAELKPQENGQPTGVAVVEYENLVDADFCIQKLNNYNYGGCSLQISYARRD"}},
  "target": "T1, upf1-DE572AA-GFP (S. cerevisiae, UniProt P30771 1-971, DE572AA)",
  "T1 sequence (looked up)": "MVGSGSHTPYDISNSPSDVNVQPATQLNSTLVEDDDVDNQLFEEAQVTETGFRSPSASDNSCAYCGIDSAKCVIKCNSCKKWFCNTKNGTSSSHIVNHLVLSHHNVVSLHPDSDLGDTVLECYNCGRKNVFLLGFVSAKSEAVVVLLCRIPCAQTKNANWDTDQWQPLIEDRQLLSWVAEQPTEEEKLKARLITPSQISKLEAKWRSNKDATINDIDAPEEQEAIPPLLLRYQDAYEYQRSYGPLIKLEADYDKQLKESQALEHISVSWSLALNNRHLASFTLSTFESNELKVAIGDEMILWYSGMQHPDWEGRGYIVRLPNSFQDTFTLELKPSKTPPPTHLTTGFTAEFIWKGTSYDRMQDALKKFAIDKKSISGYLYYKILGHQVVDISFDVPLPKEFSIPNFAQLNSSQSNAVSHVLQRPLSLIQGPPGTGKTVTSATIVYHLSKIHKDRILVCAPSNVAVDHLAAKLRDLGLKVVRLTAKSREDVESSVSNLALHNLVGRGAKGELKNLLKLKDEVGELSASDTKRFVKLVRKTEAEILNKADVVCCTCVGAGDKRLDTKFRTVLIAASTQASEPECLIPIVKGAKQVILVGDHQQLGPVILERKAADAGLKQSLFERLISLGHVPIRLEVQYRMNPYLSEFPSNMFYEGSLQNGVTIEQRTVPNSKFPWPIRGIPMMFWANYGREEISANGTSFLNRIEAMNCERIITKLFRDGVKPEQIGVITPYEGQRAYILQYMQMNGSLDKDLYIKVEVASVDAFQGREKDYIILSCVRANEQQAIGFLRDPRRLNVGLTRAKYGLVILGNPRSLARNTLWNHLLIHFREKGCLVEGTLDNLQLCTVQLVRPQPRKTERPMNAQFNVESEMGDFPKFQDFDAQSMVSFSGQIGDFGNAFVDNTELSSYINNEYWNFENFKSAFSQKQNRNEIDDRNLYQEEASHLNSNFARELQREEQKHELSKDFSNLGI",
  "assay": "co-IP",
  "data": [
    {"binder": "B1", "values": [
      {"measurement": "fold co-precipitation relative to wild-type Upf1-GFP", "value": "> 1.5", "unit": "fold"}
    ]}
  ]
}
